# Assay results as given in publication PMC7959301.
# Target: SpyCatcher-fused ferritin protein (Streptococcus pyogenes | not stated)
# Test: SDS-PAGE of the covalent SpyTag/SpyCatcher adduct
substance,measurement,value
6 × His-SpyTag-AE2F SOSIP.664,percent of input conjugated,80 to 90%
